Data published in paper PMC4844422, “Activity Regulation by Heteromerization of Arabidopsis Allene Oxide Cyclase Family Members” (Plants, 2016).

Target: the molecule itself
Assay: SDS-PAGE after mild SDS treatment (SDS-stable oligomer); purified His-tagged protein treated with 1% SDS for 5 min at room temperature or 42 °C, 12% SDS-PAGE, anti-His-tag immunoblot; trimer at about 65 kDa, monomer 26 kDa

Protein | stoichiometry N
Arabidopsis allene oxide cyclase 2 (AOC2), recombinant, with N-terminal His-tag (enzyme, Arabidopsis thaliana, UniProt Q9LS02 78-253, looked up, also called AtAOC2; hAOC2; source: E. coli M15 (pQE30), purified (Ni-NTA-agarose); not shown: His-tag, N-terminal, kept) PSKVQELSVYEINELDRHSPKILKNAFSLMFGLGDLVPFTNKLYTGDLKKRVGITAGLCVVIEHVPEKKGERFEATYSFYFGDYGHLSVQGPYLTYEDSFLAITGGAGIFEGAYGQVKLQQLVYPTKLFYTFYLKGLANDLPLELTGTPVPPSKDIEPAPEAKALEPSGVISNYTN | 3
Arabidopsis allene oxide cyclase 2 (AOC2), recombinant, with C-terminal His-tag (enzyme, Arabidopsis thaliana, UniProt Q9LS02 78-253, looked up, also called AtAOC2; source: E. coli M15 (pQE60), purified (Ni-NTA-agarose); not shown: His-tag, C-terminal, kept) PSKVQELSVYEINELDRHSPKILKNAFSLMFGLGDLVPFTNKLYTGDLKKRVGITAGLCVVIEHVPEKKGERFEATYSFYFGDYGHLSVQGPYLTYEDSFLAITGGAGIFEGAYGQVKLQQLVYPTKLFYTFYLKGLANDLPLELTGTPVPPSKDIEPAPEAKALEPSGVISNYTN | 3
